Source: US20200207850A1 (MacroGenics, published 2020)

How the values were obtained:
[1] = target: T1, B7-H3 on A498 and JIMT-1 target cells (UniProt Q5ZPR3 29-534, limits assumed); assay: cell-based or functional assay
T1 sequence (looked up): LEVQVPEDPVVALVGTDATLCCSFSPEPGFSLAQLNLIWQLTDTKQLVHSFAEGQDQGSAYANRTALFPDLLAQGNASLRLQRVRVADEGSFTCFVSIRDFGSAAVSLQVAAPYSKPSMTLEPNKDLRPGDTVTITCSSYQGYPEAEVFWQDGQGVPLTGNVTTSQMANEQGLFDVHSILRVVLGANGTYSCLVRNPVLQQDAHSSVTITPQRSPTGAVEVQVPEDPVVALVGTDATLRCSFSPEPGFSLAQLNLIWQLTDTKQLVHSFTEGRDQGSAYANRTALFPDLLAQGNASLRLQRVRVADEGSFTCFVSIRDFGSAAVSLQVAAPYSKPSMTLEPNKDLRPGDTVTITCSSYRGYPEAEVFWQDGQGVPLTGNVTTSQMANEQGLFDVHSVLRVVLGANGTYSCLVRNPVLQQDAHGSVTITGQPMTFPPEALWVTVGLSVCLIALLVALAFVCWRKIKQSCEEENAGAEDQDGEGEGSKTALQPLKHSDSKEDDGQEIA

[2] = target: ROR1 on JIMT-1 and A549 target cells (UniProt Q01973 30-937, limits assumed); assay: cell-based or functional assay

B1: B7-H3 mAb 1/CD8 mAb 1/CD3 mAb 2 Tri-Specific Binding Molecule (other)
chain 1: DVQINQSPSFLAASPGETITINCRTSRSISQYLAWYQEKPGKTNKLLIYSGSTLQSGIPSRFSGSGSGTDFTLTISGLEPEDFAMYYCQQHNENPLTFGAGTKLELRGGGSGGGGQVQLVQSGAEVKKPGASVKVSCKASGYTFTSYWMQWVRQAPGQGLEWMGTIYPGDGDTRYTQKFKGRVTITADKSTSTAYMELSSLRSEDTAVYYCARRGIPRLWYFDVWGQGTTVTVSSGGCGGGEVAALEKEVAALEKEVAALEKEVAALEKGGGDKTHTCPPCPAPEAAGGPSVFLFPPKPKDTLMISRTPEVTCVVVDVSHEDPEVKFNWYVDGVEVHNAKTKPREEQYNSTYRVVSVLTVLHQDWLNGKEYKCKVSNKALPAPIEKTISKAKGQPREPQVYTLPPSREEMTKNQVSLWCLVKGFYPSDIAVEWESNGQPENNYKTTPPVLDSDGSFFLYSKLTVDKSRWQQGNVFSCSVMHEALHNHYTQKSLSLSPGK
chain 2: DIQMTQSPSSLSASVGDRVTITCRASQDISNYLNWYQQKPGKAPKLLIYYTSRLHSGVPSRFSGSGSGTDFTLTISSLQPEDIATYYCQQGNTLPPTFGGGTKLEIKGGGSGGGGEVQLQQSGAELVKPGASVKLSCTASGFNIKDTYIHFVRQRPEQGLEWIGRIDPANDNTLYASKFQGKATITADTSSNTAYMHLCSLTSGDTAVYYCGRGYGYYVFDHWGQGTTLTVSSGGCGGGKVAALKEKVAALKEKVAALKEKVAALKE
heavy: EVQLVESGGGLVQPGGSLRLSCAASGFTFSTYAMNWVRQAPGKGLEWVGRIRSKYNNYATYYADSVKDRFTISRDDSKNSLYLQMNSLKTEDTAVYYCVRHGNFGNSYVSWFAYWGQGTLVTVSSASTKGPSVFPLAPSSKSTSGGTAALGCLVKDYFPEPVTVSWNSGALTSGVHTFPAVLQSSGLYSLSSVVTVPSSSLGTQTYICNVNHKPSNTKVDKRVEPKSCDKTHTCPPCPAPEAAGGPSVFLFPPKPKDTLMISRTPEVTCVVVDVSHEDPEVKFNWYVDGVEVHNAKTKPREEQYNSTYRVVSVLTVLHQDWLNGKEYKCKVSNKALPAPIEKTISKAKGQPREPQVYTLPPSREEMTKNQVSLSCAVKGFYPSDIAVEWESNGQPENNYKTTPPVLDSDGSFFLVSKLTVDKSRWQQGNVFSCSVMHEALHNRYTQKSLSLSPGK
light: QAVVTQEPSLTVSPGGTVTLTCRSSTGAVTTSNYANWVQQKPGQAPRGLIGGTNKRAPWTPARFSGSLLGGKAALTITGAQAEDEADYYCALWYSNLWVFGGGTKLTVLGRTVAAPSVFIFPPSDEQLKSGTASVVCLLNNFYPREAKVQWKVDNALQSGNSQESVTEQDSKDSTYSLSSTLTLSKADYEKHKVYACEVTHQGLSSPVTKSFNRGEC
EC50 (nM) of killing, CD4+ effector cells, JIMT1-luc target cells, E:T 5:1 [1]: 1.1 nM
EC50 (nM) of killing, CD8+ effector cells, JIMT1-luc target cells, E:T 5:1 [1]: 0.412 nM
EC50 (nM) of killing, PanT effector cells, JIMT1-luc target cells, E:T 5:1 [1]: 0.535 nM

B2: ROR1 mAb 1/CD3 mAb 2/CD8 mAb 2 Tri-Specific Binding Molecule (other)
chain 1: QLVLTQSPSASASLGSSVKLTCTLSSGHKTDTIDWYQQQPGKAPRYLMKLEGSGSYNKGSGVPDRFGSGSSSGADRYLTISSLQSEDEADYYCGTDYPGNYLFGGGTQLTVLGGGGSGGGGEVQLVESGGGLVQPGGSLRLSCAASGFTFSTYAMNWVRQAPGKGLEWVGRIRSKYNNYATYYADSVKGRFTISRDDSKNSLYLQMNSLKTEDTAVYYCVRHGNFGNSYVSWFAYWGQGTLVTVSSGGCGGGEVAALEKEVAALEKEVAALEKEVAALEKGGGDKTHTCPPCPAPEAAGGPSVFLFPPKPKDTLMISRTPEVTCVVVDVSHEDPEVKFNWYVDGVEVHNAKTKPREEQYNSTYRVVSVLTVLHQDWLNGKEYKCKVSNKALPAPIEKTISKAKGQPREPQVYTLPPSREEMTKNQVSLWCLVKGFYPSDIAVEWESNGQPENNYKTTPPVLDSDGSFFLYSKLTVDKSRWQQGNVFSCSVMHEALHNHYTQKSLSLSPGK
chain 2: QAVVTQEPSLTVSPGGTVTLTCRSSTGAVTTSNYANWVQQKPGQAPRGLIGGTNKRAPWTPARFSGSLLGGKAALTITGAQAEDEADYYCALWYSNLWVFGGGTKLTVLGGGGSGGGGQEQLVESGGGLVQPGGSLRLSCAASGFTFSDYYMSWVRQAPGKGLEWVATIYPSSGKTYYADSVKGRFTISSDNAKNSLYLQMNSLRAEDTAVYYCARDSYADDAALFDIWGQGTTVTVSSGGCGGGKVAALKEKVAALKEKVAALKEKVAALKE
heavy: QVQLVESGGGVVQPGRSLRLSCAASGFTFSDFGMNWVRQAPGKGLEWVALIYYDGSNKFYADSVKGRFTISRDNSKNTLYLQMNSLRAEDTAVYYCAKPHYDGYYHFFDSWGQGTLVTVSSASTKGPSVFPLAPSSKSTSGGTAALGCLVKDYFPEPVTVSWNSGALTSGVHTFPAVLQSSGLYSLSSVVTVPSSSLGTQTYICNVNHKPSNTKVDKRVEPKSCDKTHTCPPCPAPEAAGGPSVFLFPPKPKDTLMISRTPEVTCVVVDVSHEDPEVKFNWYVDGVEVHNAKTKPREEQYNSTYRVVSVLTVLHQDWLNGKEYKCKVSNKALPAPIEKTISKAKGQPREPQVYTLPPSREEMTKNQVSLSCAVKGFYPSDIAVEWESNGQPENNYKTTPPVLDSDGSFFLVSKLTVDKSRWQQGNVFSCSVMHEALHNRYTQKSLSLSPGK
light: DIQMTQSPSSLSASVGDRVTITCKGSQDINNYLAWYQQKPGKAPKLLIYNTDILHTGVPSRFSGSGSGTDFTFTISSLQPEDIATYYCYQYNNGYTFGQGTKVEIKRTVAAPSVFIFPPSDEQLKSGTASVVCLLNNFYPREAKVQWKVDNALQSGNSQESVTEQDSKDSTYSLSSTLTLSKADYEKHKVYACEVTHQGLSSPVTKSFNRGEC
EC50 (nM) of killing, CD4+ effector cells, JIMT1-luc target cells, E:T 5:1 [2]: 0.277 nM
EC50 (nM) of killing, CD8+ effector cells, JIMT1-luc target cells, E:T 5:1 [2]: 0.0021 nM
EC50 (nM) of killing, PanT effector cells, JIMT1-luc target cells, E:T 5:1 [2]: 0.0057 nM
